Results: US20250188131A1 (ICOSAVAX, published 2025)

B1: RSV/B.147 (other)
chain: QNITEEFYQSTCSAVSRGYLSALRTGWYTSVITIELSNIKETKCNGTDTKVKLIKQELDKYKNAVTELQLLMQNTPAVNNRARREAPQYMNYTINTTKNLNVSISKKRKRRFLGFLLGVGSAIASGIAVCKVLHLEGEVNKIKNALQLTNKAVVSLSNGVSVLTFRVLDLKNYINNQLLPMLNRQSCRISNIETVIEFQQKNSRLLEITREFSVNAGVTTPLSTYMLTNSELLSLINDMPITNDQKKLMSSNVQIVRQQSYSIMCIIKEEVLAYVVQLPIYGVIDTPCWKLHTSPLCTTNIKEGSNICLTRTDRGWYCDNAGSVSFFPQADTCKVQSNRVFCDTMNSLTLPSEVSLCNTDIFNSKYDCKIMTSKTDISSSVITSLGAIVSCYGKTKCTASNKNRGIIKTFSNGCDYVSNKGVDTVSVGNTLYYVNKLEGKNLYVKGEPIINYYDPLVFPSDRFDASISQVNEAINQSREIIRAINIVRKIASEKGSGGSGSGSGGSEKAAKAEEAARKMEELFKKHKIVAVLRANSVEEAIEKAVAVFAGGVHLIEITFTVPDADTVIKALSVLKEKGAIIGAGTVTSVEQARKAVESGAEFIVSPHLDEEISQFAKEKGVFYMPGVMTPTELVKAMKLGHTILKLFPGEVVGPQFVKAMKGPFPNVKFVPTGGVNLDNVAEWFKAGVLAVGVGSALVKGTPDEVREKAKAFVEKIRGATELEHHHHHH
B2: RSV/B.195 (other)
chain: QNITEEFYQSTCSAVSRGYLSALRTGWYTSVITIELSNIKETKCNGTDTKVKLIKQELDKYKNAVTELQLLMQNTPAVNNRARREAPQYMNYTINTTKNLNVSISKKRKRRFLGFLLGVGSAIASGIAVCKVLHLEGEVNKIKNALQLTNKAVVSLSNGVSVLTFRVLDLKNYINNQLLPMLNRQSCRISNIETVIEFQQKNSRLLEITREFSVNAGVTTPLSTYMLTNSELLSLINDMPITNDQKKLMSSNVQIVRQQSYSIMCIIKEEVLAYVVQLPIYGVIDTPCWKLHTSPLCTTNIKEGSNICLTRTDRGWYCDNAGSVSFFPQADTCKVQSNRVFCDTMNSLTLPSEVSLCNTDIFNSKYDCKIMTSKTDISSSVITSLGAIVSCYGKTKCTASNKNRGIIKTFSNGCDYVSNKGVDTVSVGNTLYYVNKLEGKNLYVKGEPIINYYDPLVFPSDEFDASISQVNEKINQSREIIRAINIVRKIASEKGSGGSGSGSGGSEKAAKAEEAARKMEELFKKHKIVAVLRANSVEEAIEKAVAVFAGGVHLIEITFTVPDADTVIKALSVLKEKGAIIGAGTVTSVEQARKAVESGAEFIVSPHLDEEISQFAKEKGVFYMPGVMTPTELVKAMKLGHTILKLFPGEVVGPQFVKAMKGPFPNVKFVPTGGVNLDNVAEWFKAGVLAVGVGSALVKGTPDEVREKAKAFVEKIRGATELEHHHHHH
B3: RSV/B.160 (other)
chain: QNITEEFYQSTCSAVSRGYLSALRTGWYTSVITIELSNIKETKCNGTDTKVKLIKQELDKYKNAVTELQLLMQNTPAVNNRARREAPQYMNYTINTTKNLNVSISKKRKRRFLGFLLGVGSAIASGIAVCKVLHLEGEVNKIKNALQLTNKAVVSLSNGVSVLTFRVLDLKNYINNQLLPMLNRQSCRISNIETVIEFQQKNSRLLEITREFSVNAGVTTPLSPYMLTNSELLSLINDMPITNDQKKLMSSNVQIVRQQSYSIMCIIKEEVLAYVVQLPIYGVIDTPCWKLHTSPLCTTNIKEGSNICLTRTDRGWYCDNAGSVSFFPQADTCKVQSNRVFCDTMNSLTLPSEVSLCNTDIFNSKYDCKIMTSKDDISSSVITSLGAIVSCYGKTKCTASNKNRGIIKTFSNGCDYVSNKGVDTVSVGNTLYYVNKLEGKNLYVKGEPIINYYDPLVFPSDRWAASISQVNEAINQSREIIRAINIVRKIASEKGSGGSGSGSGGSEKAAKAEEAARKMEELFKKHKIVAVLRANSVEEAIEKAVAVFAGGVHLIEITFTVPDADTVIKALSVLKEKGAIIGAGTVTSVEQARKAVESGAEFIVSPHLDEEISQFAKEKGVFYMPGVMTPTELVKAMKLGHTILKLFPGEVVGPQFVKAMKGPFPNVKFVPTGGVNLDNVAEWFKAGVLAVGVGSALVKGTPDEVREKAKAFVEKIRGATELEHHHHHH
B4: RSV/B.172 (other)
chain: QNITEEFYQSTCSAVSRGYLSALRTGWYTSVITIELSNIKETKCNGTDTKVKLIKQELDKYKNAVTELQLLMQNTPAVNNRARREAPQYMNYTINTTKNLNVSISKKRKRRFLGFLLGVGSAIASGIAVCKVLHLEGEVNKIKNALQLTNKAVVSLSNGVSVLTFRVLDLKNYINNQLLPMLNRQSCRISNIETVIEFQQKNSRLLEITREFSVNAGVTTPLSPYMLTNSELLSLINDMPITNDQKKLMSSNVQIVRQQSYSIMCIIKEEVLAYVVQLPIYGVIDTPCWKLHTSPLCTTNIKEGSNICLTRTDRGWYCDNAGSVSFFPQADTCKVQSNRVFCDTMNSLTLPSEVSLCNTDIFNSKYDCKIMTSKDDISSSVITSLGAIVSCYGKTKCTASNKNRGIIKTFSNGCDYVSNKGVDTVSVGNTLYYVNKLEGKNLYVKGEPIINYYDPLVFPSDRFAASISQVNEAINQSREIIRAINIVRKIASEKGSGGSGSGSGGSEKAAKAEEAARKMEELFKKHKIVAVLRANSVEEAIEKAVAVFAGGVHLIEITFTVPDADTVIKALSVLKEKGAIIGAGTVTSVEQARKAVESGAEFIVSPHLDEEISQFAKEKGVFYMPGVMTPTELVKAMKLGHTILKLFPGEVVGPQFVKAMKGPFPNVKFVPTGGVNLDNVAEWFKAGVLAVGVGSALVKGTPDEVREKAKAFVEKIRGATELEHHHHHH
B5: RSV/B.189 (other)
chain: QNITEEFYQSTCSAVSRGYLSALRTGWYTSVITIELSNIKETKCNGTDTKVKLIKQELDKYKNAVTELQLLMQNTPAVNNRARREAPQYMNYTINTTKNLNVSISKKRKRRFLGFLLGVGSAIASGIAVCKVLHLEGEVNKIKNALQLTNKAVVSLSNGVSVLTFRVLDLKNYINNQLLPMLNRQSCRISNIETVIEFQQKNSRLLEITREFSVNAGVTTPLSTYMLTNSELLSLINDMPITNDQKKLMSSNVQIVRQQSYSIMCIIKEEVLAYVVQLPIYGVIDTPCWKLHTSPLCTTNIKEGSNICLTRTDRGWYCDNAGSVSFFPQADTCKVQSNRVFCDTMNSLTLPSEVSLCNTDIFNSKYDCKIMTSKDDISSSVITSLGAIVSCYGKTKCTASNKNRGIIKTFSNGCDYVSNKGVDTVSVGNTLYYVNKLEGKNLYVKGEPIINYYDPLVFPSARWAASISQVNEAINQSREIIRAINIVRKIASEKGSGGSGSGSGGSEKAAKAEEAARKMEELFKKHKIVAVLRANSVEEAIEKAVAVFAGGVHLIEITFTVPDADTVIKALSVLKEKGAIIGAGTVTSVEQARKAVESGAEFIVSPHLDEEISQFAKEKGVFYMPGVMTPTELVKAMKLGHTILKLFPGEVVGPQFVKAMKGPFPNVKFVPTGGVNLDNVAEWFKAGVLAVGVGSALVKGTPDEVREKAKAFVEKIRGATELEHHHHHH
B6: RSV/B.178 (other)
chain: QNITEEFYQSTCSAVSRGYLSALRTGWYTSVITIELSNIKETKCNGTDTKVKLIKQELDKYKNAVTELQLLMQNTPAVNNRARREAPQYMNYTINTTKNLNVSISKKRKRRFLGFLLGVGSAIASGIAVCKVLHLEGEVNKIKNALQLTNKAVVSLSNGVSVLTFRVLDLKNYINNQLLPMLNRQSCRISNIETVIEFQQKNSRLLEITREFSVNAGVTTPLSPYMLTNSELLSLINDMPITNDQKKLMSSNVQIVRQQSYSIMCIIKEEVLAYVVQLPIYGVIDTPCWKLHTSPLCTTNIKEGSNICLTRTDRGWYCDNAGSVSFFPQADTCKVQSNRVFCDTMNSLTLPSEVSLCNTDIFNSKYDCKIMTSKDDISSSVITSLGAIVSCYGKTKCTASNKNRGIIKTFSNGCDYVSNKGVDTVSVGNTLYYVNKLEGKNLYVKGEPIINYYDPLVFPSARFAASISQVNEAINQSREIIRAINIVRKIASEKGSGGSGSGSGGSEKAAKAEEAARKMEELFKKHKIVAVLRANSVEEAIEKAVAVFAGGVHLIEITFTVPDADTVIKALSVLKEKGAIIGAGTVTSVEQARKAVESGAEFIVSPHLDEEISQFAKEKGVFYMPGVMTPTELVKAMKLGHTILKLFPGEVVGPQFVKAMKGPFPNVKFVPTGGVNLDNVAEWFKAGVLAVGVGSALVKGTPDEVREKAKAFVEKIRGATELEHHHHHH

These binders were tested against T1, I53-50B.4PosT1 (assay: in vitro assembly with I53-50B, DLS).
T1 construct: also called second component; CompB
Experimental: Selected constructs were incubated with a second component, I53-50B, to form nanostructures. Dynamic Light Scattering (DLS) and negative-stain electron microscopy (nsEM) confirm assembly as nanostructure. A representative electron micrograph is shown in FIG. 5 (RSV/B.195, having the DS-Cav).
Assembly: Molar concentrations for RSV/B or RSV/A trimers fused to I53-50AΔcys and I53-50B (second component, using the sequence of I53-50B.4PosT1, SEQ ID NO:46) were determined using UV-Vis spectroscopy. Absorbance values at 280 nm were collected and divided by calculated molar extinction coefficients (ExPASy). The assembly reaction to produce RSVB antigen-bearing nanostructures was performed in vitro with the addition of components as follows: RSV F trimers fused to I53-50AΔcys were added to PCR tubes in 1.5× molar excess of I53-50B, then assembly buffer (20 mM Tris pH 7.4, 250 mM NaCl, 4% sucrose) was added to the sample in PCR tubes, and finally I53-50B was added to the reaction to bring the assemblies to a final concentration of 7.5 μM and a final volume of 47.5 μL. The reaction was incubated at ambient temperature for ˜30 minutes with gentle rocking prior to subsequent measurement by dynamic light scattering (DLS). All constructs were assembly competent under the conditions tested. Prior to nsEM analysis or immunogenicity studies, assembled nanostructures were further purified by size exclusion chromatography over a Superose 6 Increase 10/300 GL column into 20 mM Tris pH 7.4, 250 mM NaCl, 4% sucrose.

Binder	binding result
B1	binds
B2	binds
B3	binds
B4	binds
B5	binds
B6	binds
